One molecule from publication PMC10419011, “Dynamics of the Second Extracellular Loop Control Transducer Coupling of Peptide-Activated GPCRs” (International Journal of Molecular Sciences, 2023) can be followed below.

The test has as its target T1, K^18-TAMRA-NPY (5/6-tetramethylrhodamine (TAMRA) on the side chain of Lys18).
T1 construct: neuropeptide Y (NPY) with a TAMRA-carrying lysine at position 18; also called Tam-labeled NPY; TAMRA-labeled peptide ligand; source: synthetic peptide (Fmoc/tBu solid phase, RP-HPLC, purity > 95%)
As to the kind of experiment: fluorescence polarisation; various concentrations of receptor in small DMPC/DHPC bicelles with 50 nM (K^18-TAMRA)-NPY, 1 h at room temperature, measured at 20 °C; sigmoidal dose-response fit. To be noted: both partners purified. Background: Polarisation of emitted light reports the rotation of a fluorescent probe.

B1: Y2R_A202^45.49C,Δ6Cys-IAP (A202^45.49-P1) (receptor)
chain: MGPIGAEADENQTVEEMKVEQYGPQTTPRGELVPDPEPELIDSTKLIEVQVVLILAYASIILLGVIGNSLVIHVVIKFKSMRTVTNFFIANLAVADLLVNTLALPFTLTYTLMGEWKMGPVLCHLVPYAQGLAVQVSTITLTVIALDRHRAIVYHLESKISKRISFLIIGLAWGISALLASPLAIFREYSLIEIIPDFEIVCCTEKWPGEEKSIYGTVYSLSSLLILYVLPLGIISFSYTRIWSKLKNHVSPGAANDHYHQRRQKTTKMLVSVVVVFAVSWLPLHAFQLAVDIDSQVLDLKEYKLIFTVFHIIAMASTFANPLLYGWMNSNYRKAFLSAFRSEQRLDAIHSEVSVTFKAKKNLEVRKNSGPNDSFTEATNV
modifications: cysteine at position 202 labelled with 3-(2-iodacetamido)-proxyl (IAP), thioether-bound spin label side chain P1
As usually defined, the Kd is a measure of binding affinity in units of concentration. B1 displayed a dissociation constant (Kd) of 81.8 ± 5.1 nM.
